Measured values as given in patent US12655197 (dated 2026).

Target: ProAgio
Experiment: SPR

- Kd: 0.12 nM
B1: αVβ3 (receptor)
chain 1: FNLDVDSPAEYSGPEGSYFGFAVDFFVPSASSRMFLLVGAPKANTTQPGIVEGGQVLKCDWSSTRRCQPIEFDATGNRDYAKDDPLEFKSHQWFGASVRSKQDKILACAPLYHWRTEMKQEREPVGTCFLQDGTKTVEYAPCRSQDIDADGQGFCQGGFSIDFTKADRVLLGGPGSFYWQGQLISDQVAEIVSKYDPNVYSIKYNNQLATRTAQAIFDDSYLGYSVAVGDFNGDGIDDFVSGVPRAARTLGMVYIYDGKNMSSLYNFTGEQMAAYFGFSVAATDINGDDYADVFIGAPLFMDRGSDGKLQEVGQVSVSLQRASGDFQTTKLNGFEVFARFGSAIAPLGDLDQDGFNDIAIAAPYGGEDKKGIVYIFNGRSTGLNAVPSQILEGQWAARSMPPSFGYSMKGATDIDKNGYPDLIVGAFGVDRAILYRARPVITVNAGLEVYPSILNQDNKTCSLPGTALKVSCFNVRFCLKADGKGVLPRKLNFQVELLLDKLKQKGAIRRALFLYSRSPSHSKNMTISRGGLMQCEELIAYLRDESEFRDKLTPITIFMEYRLDYRTAADTTGLQPILNQFTPANISRQAHILLDCGEDNVCKPKLEVSVDSDQKKIYIGDDNPLTLIVKAQNQGEGAYEAELIVSIPLQADFIGVVRNNEALARLSCAFKTENQTRQVVCDLGNPMKAGTQLLAGLRFSVHQQSEMDTSVKFDLQIQSSNLFDKVSPVVSHKVDLAVLAAVEIRGVSSPDHVFLPIPNWEHKENPETEEDVGPVVQHIYELRNNGPSSFSKAMLHLQWPYKYNNNTLLYILHYDIDGPMNCTSDMEINPLRIKISSLQTTEKNDTVAGQGERDHLITKRDLALSEGDIHTLGCGVAQCLKIVCQVGRLDRGKSAILYVKSLLWTETFMNKENQNHSYSLKSSASFNVIEFPYKNLPIEDITNSTLVTTNVTWGIQPAPMPV
chain 2: GPNICTTRGVSSCQQCLAVSPMCAWCSDEALPLGSPRCDLKENLLKDNCAPESIEFPVSEARVLEDRPLSDKGSGDSSQVTQVSPQRIALRLRPDDSKNFSIQVRQVEDYPVDIYYLMDLSYSMKDDLWSIQNLGTKLATQMRKLTSNLRIGFGAFVDKPVSPYMYISPPEALENPCYDMKTTCLPMFGYKHVLTLTDQVTRFNEEVKKQSVSRNRDAPEGGFDAIMQATVCDEKIGWRNDASHLLVFTTDAKTHIALDGRLAGIVQPNDGQCHVGSDNHYSASTTMDYPSLGLMTEKLSQKNINLIFAVTENVVNLYQNYSELIPGTTVGVLSMDSSNVLQLIVDAYGKIRSKVELEVRDLPEELSLSFNATCLNNEVIPGLKSCMGLKIGDTVSFSIEAKVRGCPQEKEKSFTIKPVGFKDSLIVQVTFDCDCACQAQAEPNSHRCNNGNGTFECGVCRCGPGWLGSQCECSEEDYRPSQQDECSPREGQPVCSQRGECLCGQCVCHSSDFGKITGKYCECDDFSCVRYKGEMCSGHGQCSCGDCLCDSDWTGYYCNCTTRTDTCMSSNGLLCSGRGKCECGSCVCIQPGSYGDTCEKCPTCPDACTFKKECVECKKFDRGALHDENTCNRYCRDEIESVKELKDTGKDAVNCTYKNEDDCVVRFQYYEDSSGKSILYVVEEPECPKGPD
